According to IntAct's records for PubMed 22820947:

B1: ATP-dependent helicase SGS1 (Saccharomyces cerevisiae), P35187 (parent)
chain: MVTKPSHNLRREHKWLKETATLQEDKDFVFQAIQKHIANKRPKTNSPPTTPSKDECGPGTTNFITSIPASGPTNTATKQHEVMQTLSNDTEWLSYTATSNQYADVPMVDIPASTSVVSNPRTPNGSKTHNFNTFRPHMASSLVENDSSRNLGSRNNNKSVIDNSSIGKQLENDIKLEVIRLQGSLIMALKEQSKLLLQKCSIIESTSLSEDAKRLQLSRDIRPQLSNMSIRIDSLEKEIIKAKKDGMSKDQSKGRSQVSSQDDNIISSILPSPLEYNTSSRNSNLTSTTATTVTKALAITGAKQNITNNTGKNSNNDSNNDDLIQVLDDEDDIDCDPPVILKEGAPHSPAFPHLHMTSEEQDELTRRRNMRSREPVNYRIPDRDDPFDYVMGKSLRDDYPDVEREEDELTMEAEDDAHSSYMTTRDEEKEENELLNQSDFDFVVNDDLDPTQDTDYHDNMDVSANIQESSQEGDTRSTITLSQNKNVQVILSSPTAQSVPSNGQNQIGVEHIDLLEDDLEKDAILDDSMSFSFGRQHMPMSHSDLELIDSEKENEDFEEDNNNNGIEYLSDSDLERFDEERENRTQVADIQELDNDLKIITERKLTGDNEHPPPSWSPKIKREKSSVSQKDEEDDFDDDFSLSDIVSKSNLSSKTNGPTYPWSDEVLYRLHEVFKLPGFRPNQLEAVNATLQGKDVFVLMPTGGGKSLCYQLPAVVKSGKTHGTTIVISPLISLMQDQVEHLLNKNIKASMFSSRGTAEQRRQTFNLFINGLLDLVYISPEMISASEQCKRAISRLYADGKLARIVVDEAHCVSNWGHDFRPDYKELKFFKREYPDIPMIALTATASEQVRMDIIHNLELKEPVFLKQSFNRTNLYYEVNKKTKNTIFEICDAVKSRFKNQTGIIYCHSKKSCEQTSAQMQRNGIKCAYYHAGMEPDERLSVQKAWQADEIQVICATVAFGMGIDKPDVRFVYHFTVPRTLEGYYQETGRAGRDGNYSYCITYFSFRDIRTMQTMIQKDKNLDRENKEKHLNKLQQVMAYCDNVTDCRRKLVLSYFNEDFDSKLCHKNCDNCRNSANVINEERDVTEPAKKIVKLVESIQNERVTIIYCQDVFKGSRSSKIVQANHDTLEEHGIGKSMQKSEIERIFFHLITIRVLQEYSIMNNSGFASSYVKVGPNAKKLLTGKMEIKMQFTISAPNSRPSTSSSFQANEDNIPVIAQKSTTIGGNVAANPPRFISAKEHLRSYTYGGSTMGSSHPITLKNTSDLRSTQELNNLRMTYERLRELSLNLGNRMVPPVGNFMPDSILKKMAAILPMNDSAFATLGTVEDKYRRRFKYFKATIADLSKKRSSEDHEKYDTILNDEFVNRAAASSNGIAQSTGTKSKFFGANLNEAKENEQIINQIRQSQLPKNTTSSKSGTRSISKSSKKSANGRRGFRNYRGHYRGRK

Variants of: B1
Conditions: with rad53_yeast RAD53, P22216
Chain of rad53_yeast RAD53, P22216 (P22216 whole entry): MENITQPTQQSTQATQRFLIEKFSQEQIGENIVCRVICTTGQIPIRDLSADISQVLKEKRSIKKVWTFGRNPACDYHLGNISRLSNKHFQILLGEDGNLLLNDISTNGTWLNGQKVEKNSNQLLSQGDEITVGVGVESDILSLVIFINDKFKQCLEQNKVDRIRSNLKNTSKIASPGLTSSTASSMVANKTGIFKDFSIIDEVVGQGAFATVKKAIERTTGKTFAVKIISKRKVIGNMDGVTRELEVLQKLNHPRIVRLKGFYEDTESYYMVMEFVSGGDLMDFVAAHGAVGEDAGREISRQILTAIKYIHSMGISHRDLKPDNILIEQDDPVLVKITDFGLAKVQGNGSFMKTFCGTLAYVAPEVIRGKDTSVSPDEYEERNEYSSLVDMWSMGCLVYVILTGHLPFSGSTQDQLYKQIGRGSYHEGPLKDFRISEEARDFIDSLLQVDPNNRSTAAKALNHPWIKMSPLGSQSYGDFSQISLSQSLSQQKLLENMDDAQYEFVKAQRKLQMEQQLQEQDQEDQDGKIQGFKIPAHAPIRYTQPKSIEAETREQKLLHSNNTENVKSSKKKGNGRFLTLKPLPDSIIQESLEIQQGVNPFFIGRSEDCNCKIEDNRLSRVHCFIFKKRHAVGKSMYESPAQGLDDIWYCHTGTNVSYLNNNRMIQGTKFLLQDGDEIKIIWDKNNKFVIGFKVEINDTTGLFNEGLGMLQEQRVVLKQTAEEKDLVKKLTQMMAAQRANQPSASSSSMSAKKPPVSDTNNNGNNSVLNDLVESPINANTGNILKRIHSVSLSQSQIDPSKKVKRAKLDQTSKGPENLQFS

Variant	effect of a mutation on the interaction
S482A	decreasing interaction
T585A	decreasing interaction
S470A	decreasing interaction
T451A	decreasing interaction
